The labels stand for the following.
B1: ADP-ribosylation factor-like protein 6 (Homo sapiens), Q9H0F7 (parent)
chain: MGLLDRLSVLLGLKKKEVHVLCLGLDNSGKTTIINKLKPSNAQSQNILPTIGFSIEKFKSSSLSFTVFDMSGQGRYRNLWEHYYKEGQAIIFVIDSSDRLRMVVAKEELDTLLNHPDIKHRRIPILFFANKMDLRDAVTSVKVSQLLCLENIKDKPWHICASDAIKGEGLQEGVDWLQDQIQTVKT
partner: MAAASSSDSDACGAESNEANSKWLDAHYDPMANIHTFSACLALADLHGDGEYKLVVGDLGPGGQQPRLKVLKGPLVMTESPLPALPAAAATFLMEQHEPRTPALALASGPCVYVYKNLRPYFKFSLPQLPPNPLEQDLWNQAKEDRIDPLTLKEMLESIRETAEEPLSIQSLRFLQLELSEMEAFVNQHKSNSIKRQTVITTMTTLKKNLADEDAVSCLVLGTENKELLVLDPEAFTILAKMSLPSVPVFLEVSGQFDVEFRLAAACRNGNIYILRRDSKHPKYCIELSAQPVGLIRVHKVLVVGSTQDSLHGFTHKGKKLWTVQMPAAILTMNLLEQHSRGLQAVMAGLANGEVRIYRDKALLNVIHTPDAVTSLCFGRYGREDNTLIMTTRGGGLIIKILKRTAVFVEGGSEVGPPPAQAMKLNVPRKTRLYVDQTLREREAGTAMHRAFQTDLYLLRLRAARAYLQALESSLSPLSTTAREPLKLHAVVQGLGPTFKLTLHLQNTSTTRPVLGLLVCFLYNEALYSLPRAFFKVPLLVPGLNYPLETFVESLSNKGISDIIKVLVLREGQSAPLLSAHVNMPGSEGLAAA
B2: Somatostatin receptor type 3 (Mus musculus), P30935 (parent)
chain: MATVTYPSSEPTTLDPGNASSTWPLDTTLGNTSAGASLTGLAVSGILISLVYLVVCVVGLLGNSLVIYVVLRHTSSPSVTSVYILNLALADELFMLGLPFLAAQNALSYWPFGSLMCRLVMAVDGINQFTSIFCLTVMSVDRYLAVVHPTRSARWRTAPVARTVSAAVWVASAVVVLPVVVFSGVPRGMSTCHMQWPEPAAAWRTAFIIYTAALGFFGPLLVICLCYLLIVVKVRSTTRRVRAPSCQWVQAPACQRRRRSERRVTRMVVAVVALFVLCWMPFYLLNIVNVVCPLPEEPAFFGLYFLVVALPYANSCANPILYGFLSYRFKQGFRRILLRPSRRIRSQEPGSGPPEKTEEEEDEEEEERREEEERRMQRGQEMNGRLSQIAQAGTSGQQPRPCTGTAKEQQLLPQEATAGDKASTLSHL
partner: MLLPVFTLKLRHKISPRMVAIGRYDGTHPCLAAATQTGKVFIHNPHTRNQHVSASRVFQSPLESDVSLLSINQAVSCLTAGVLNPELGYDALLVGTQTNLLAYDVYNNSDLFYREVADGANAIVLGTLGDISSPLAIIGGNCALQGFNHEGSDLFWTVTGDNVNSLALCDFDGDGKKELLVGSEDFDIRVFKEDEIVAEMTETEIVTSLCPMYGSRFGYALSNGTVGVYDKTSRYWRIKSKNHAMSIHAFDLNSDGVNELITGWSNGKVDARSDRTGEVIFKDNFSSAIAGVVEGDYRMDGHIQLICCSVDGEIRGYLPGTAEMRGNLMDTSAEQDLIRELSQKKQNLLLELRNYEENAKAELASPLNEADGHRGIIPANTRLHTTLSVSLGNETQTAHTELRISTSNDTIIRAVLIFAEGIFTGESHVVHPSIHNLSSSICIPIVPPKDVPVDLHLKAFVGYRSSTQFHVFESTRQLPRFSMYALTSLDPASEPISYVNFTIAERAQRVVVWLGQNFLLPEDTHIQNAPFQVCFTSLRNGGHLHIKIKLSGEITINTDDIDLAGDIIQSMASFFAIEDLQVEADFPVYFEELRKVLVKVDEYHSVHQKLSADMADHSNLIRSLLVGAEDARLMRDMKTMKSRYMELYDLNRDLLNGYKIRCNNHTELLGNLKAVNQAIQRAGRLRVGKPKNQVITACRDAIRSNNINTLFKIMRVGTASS

In one test the parent is B1. The following applies: with bbs1_human BBS1, Q8NFJ9.
Turning to MGLLDRLSVLLGLKKKEVHVLCLGLDNSGKTTIINKLKPSNAQSQNILPTIGFSIEKFKSSSLSFTVFDMSGLGRYRNLWEHYYKEGQAIIFVIDSSDRLRMVVAKEELDTLLNHPDIKHRRIPILFFANKMDLRDAVTSVKVSQLLCLENIKDKPWHICASDAIKGEGLQEGVDWLQDQIQTVKT, the “effect of a mutation on the interaction” value was “increasing interaction”.

The next test covers variants of B2. The following applies: with bbs2_human BBS2, Q9BXC9.
For MATVTYPSSEPTTLDPGNASSTWPLDTTLGNTSAGASLTGLAVSGILISLVYLVVCVVGLLGNSLVIYVVLRHTSSPSVTSVYILNLALADELFMLGLPFLAAQNALSYWPFGSLMCRLVMAVDGINQFTSIFCLTVMSVDRYLAVVHPTRSARWRTAPVARTVSAAVWVASAVVVLPVVVFSGVPRGMSTCHMQWPEPAAAWRTAFIIYTAALGFFGPLLVICLCYLLIVVKVRSTTRRVRAASCAWVQAPACQRRRRSERRVTRMVVAVVALFVLCWMPFYLLNIVNVVCPLPEEPAFFGLYFLVVALPYANSCANPILYGFLSYRFKQGFRRILLRPSRRIRSQEPGSGPPEKTEEEEDEEEEERREEEERRMQRGQEMNGRLSQIAQAGTSGQQPRPCTGTAKEQQLLPQEATAGDKASTLSHL [P244A;Q247A], the “effect of a mutation on the interaction” value is given as “increasing interaction”. Take MATVTYPSSEPTTLDPGNASSTWPLDTTLGNTSAGASLTGLAVSGILISLVYLVVCVVGLLGNSLVIYVVLRHTSSPSVTSVYILNLALADELFMLGLPFLAAQNALSYWPFGSLMCRLVMAVDGINQFTSIFCLTVMSVDRYLAVVHPTRSARWRTAPVARTVSAAVWVASAVVVLPVVVFSGVPRGMSTCHMQWPEPAAAWRTAFIIYTAALGFFGPLLVICLCYLLIVVKVRSTTRRVRAPSAQWVQAPACQRRRRSERRVTRMVVAVVALFVLCWMPFYLLNIVNVVCPLPEEPAFFGLYFLVVALPYANSCANPILYGFLSYRFKQGFRRILLRPSRRIRSQEPGSGPPEKTEEEEDEEEEERREEEERRMQRGQEMNGRLSQIAQAGTSGQQPRPCTGTAKEQQLLPQEATAGDKASTLSHL [C246A]: the “effect of a mutation on the interaction” value is listed as “disrupting interaction”.

MATVTYPSSEPTTLDPGNASSTWPLDTTLGNTSAGASLTGLAVSGILISLVYLVVCVVGLLGNSLVIYVVLRHTSSPSVTSVYILNLALADELFMLGLPFLAAQNALSYWPFGSLMCRLVMAVDGINQFTSIFCLTVMSVDRYLAVVHPTRSARWRTAPVARTVSAAVWVASAVVVLPVVVFSGVPRGMSTCHMQWPEPAAAWRTAFIIYTAALGFFGPLLVICLCYLLIVVKVRSTTRRVRAPSAAWVQAPACQRRRRSERRVTRMVVAVVALFVLCWMPFYLLNIVNVVCPLPEEPAFFGLYFLVVALPYANSCANPILYGFLSYRFKQGFRRILLRPSRRIRSQEPGSGPPEKTEEEEDEEEEERREEEERRMQRGQEMNGRLSQIAQAGTSGQQPRPCTGTAKEQQLLPQEATAGDKASTLSHL [C246A;Q247A]: the “effect of a mutation on the interaction” value is “decreasing interaction”. Take MATVTYPSSEPTTLDPGNASSTWPLDTTLGNTSAGASLTGLAVSGILISLVYLVVCVVGLLGNSLVIYVVLRHTSSPSVTSVYILNLALADELFMLGLPFLAAQNALSYWPFGSLMCRLVMAVDGINQFTSIFCLTVMSVDRYLAVVHPTRSARWRTAPVARTVSAAVWVASAVVVLPVVVFSGVPRGMSTCHMQWPEPAAAWRTAFIIYTAALGFFGPLLVICLCYLLIVVKVRSTTRRVRAPSCAWVQAPACQRRRRSERRVTRMVVAVVALFVLCWMPFYLLNIVNVVCPLPEEPAFFGLYFLVVALPYANSCANPILYGFLSYRFKQGFRRILLRPSRRIRSQEPGSGPPEKTEEEEDEEEEERREEEERRMQRGQEMNGRLSQIAQAGTSGQQPRPCTGTAKEQQLLPQEATAGDKASTLSHL [Q247A]: the “effect of a mutation on the interaction” value is recorded as “increasing interaction”. Same read-out and setting: the value for MATVTYPSSEPTTLDPGNASSTWPLDTTLGNTSAGASLTGLAVSGILISLVYLVVCVVGLLGNSLVIYVVLRHTSSPSVTSVYILNLALADELFMLGLPFLAAQNALSYWPFGSLMCRLVMAVDGINQFTSIFCLTVMSVDRYLAVVHPTRSARWRTAPVARTVSAAVWVASAVVVLPVVVFSGVPRGMSTCHMQWPEPAAAWRTAFIIYTAALGFFGPLLVICLCYLLIVVKVRSTTRRVRFPSCFWVQAPACQRRRRSERRVTRMVVAVVALFVLCWMPFYLLNIVNVVCPLPEEPAFFGLYFLVVALPYANSCANPILYGFLSYRFKQGFRRILLRPSRRIRSQEPGSGPPEKTEEEEDEEEEERREEEERRMQRGQEMNGRLSQIAQAGTSGQQPRPCTGTAKEQQLLPQEATAGDKASTLSHL [A243F;Q247F] was “increasing interaction”.
